Test results taken from PMC11306395, “Structural basis for the interaction between human coronavirus HKU1 spike receptor binding domain and its receptor TMPRSS2” (Cell Discovery, 2024).

B1: HKU1-B (1B) spike S1 receptor-binding domain (domain or fragment)
chain: NLPDCDIDNWLNNVSVPSPLNWERRIFSNCNFNLSTLLRLVHVDSFSCNNLDKSKIFGSCFNSITVDKFAIPNRRRDDLQLGSSGFLQSSNYKIDISSSSCQLYYSLPLVNVTINNFNPSSWNRRYGFGSFNLSSYDVVYSDHCFSVNSDFCPCADPSVVNSCAKSKPPSAICPAGTKYRHCDLDTTLYVKNWCRCSCLPDPISTYSPNTCPQKKVVVGIGEHCPGLGINEEKCGTQLNHSSCFCSPDAFLGWSFDSCISNNRCNIFSNFIFNGINSGTTCSNDL
modifications: N-glycosylated; disulfides C504-C518 and C520-C533. Construct limits are only in the schematic (Fig. 1a), so they are taken from the paper's own deposited entity 8YQQ; the assayed construct may …
B2: HKU1-A (1A) spike S1 receptor-binding domain (domain or fragment)
chain: SGFTVKPVATVHRRIPDLPDCDIDKWLNNFNVPSPLNWERKIFSNCNFNLSTLLRLVHTDSFSCNNFDESKIYGSCFKSIVLDKFAIPNSRRSDLQLGSSGFLQSSNYKIDTTSSSCQLYYSLPAINVTINNYNPSSWNRRYGFNNFNLSSHSVVYSRYCFSVNNTFCPCAKPSFASSCKSHKPPSASCPIGTNYRSCESTTVLDHTDWCRCSCLPDPITAYDPRSCSQKKSLVGVGEHCAGFGVDEEKCGVLDGSYNVSCLCSTDAFLGWSYDTCVSNNRCNIFSNFILNGINSGTTCSNDLLQPNTEVFTDVCVDYDLYGITGQGIFKEVSAVYYNSWQNLLYDSNGNIIGFKDFVTNKTYNIFPCYAG
modifications: N-glycosylated; disulfides C504-C518 and C520-C533. Construct limits are only in the schematic (Fig. 1a), so they are taken from the paper's own deposited entity 8YOY (start and end shown match …)

Target: T1, transmembrane serine protease 2 (TMPRSS2) ectodomain (human, UniProt O15393 106-492)
T1 construct: Transmembrane serine protease 2 (TMPRSS2), ectodomain; also called TMRPSS2; source: purified
Experiment: BLI; bio-layer interferometry titrations of RBD-TMPRSS2; which partner was immobilised and the conditions are not told
Conditions: both partners purified

T1 sequence (O15393 106-492): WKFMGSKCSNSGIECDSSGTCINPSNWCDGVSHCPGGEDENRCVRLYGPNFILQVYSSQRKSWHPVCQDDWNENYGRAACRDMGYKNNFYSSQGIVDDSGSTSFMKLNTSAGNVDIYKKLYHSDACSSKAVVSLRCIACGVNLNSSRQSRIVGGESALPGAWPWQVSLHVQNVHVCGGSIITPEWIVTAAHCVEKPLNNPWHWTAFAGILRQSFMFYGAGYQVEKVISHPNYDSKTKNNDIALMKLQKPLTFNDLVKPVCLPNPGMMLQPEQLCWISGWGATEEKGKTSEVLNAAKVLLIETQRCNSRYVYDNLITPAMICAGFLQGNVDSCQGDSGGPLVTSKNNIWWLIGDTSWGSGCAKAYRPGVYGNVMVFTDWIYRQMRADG

Binder	Kd [nM]
B1	170
B2	323
